The results in this text go back to patent US20120328616A1 (Amgen, published 2012).

Assay [1] deals with T1, huBeta_Klotho (1-301, 509-743, 967-1044) (muBeta KLOTHO 302-506, 742-964) (human; murine, UniProt Q86Z14 1-1044).
T1 construct: also called Chimera 14; Construct 14
T1 chain: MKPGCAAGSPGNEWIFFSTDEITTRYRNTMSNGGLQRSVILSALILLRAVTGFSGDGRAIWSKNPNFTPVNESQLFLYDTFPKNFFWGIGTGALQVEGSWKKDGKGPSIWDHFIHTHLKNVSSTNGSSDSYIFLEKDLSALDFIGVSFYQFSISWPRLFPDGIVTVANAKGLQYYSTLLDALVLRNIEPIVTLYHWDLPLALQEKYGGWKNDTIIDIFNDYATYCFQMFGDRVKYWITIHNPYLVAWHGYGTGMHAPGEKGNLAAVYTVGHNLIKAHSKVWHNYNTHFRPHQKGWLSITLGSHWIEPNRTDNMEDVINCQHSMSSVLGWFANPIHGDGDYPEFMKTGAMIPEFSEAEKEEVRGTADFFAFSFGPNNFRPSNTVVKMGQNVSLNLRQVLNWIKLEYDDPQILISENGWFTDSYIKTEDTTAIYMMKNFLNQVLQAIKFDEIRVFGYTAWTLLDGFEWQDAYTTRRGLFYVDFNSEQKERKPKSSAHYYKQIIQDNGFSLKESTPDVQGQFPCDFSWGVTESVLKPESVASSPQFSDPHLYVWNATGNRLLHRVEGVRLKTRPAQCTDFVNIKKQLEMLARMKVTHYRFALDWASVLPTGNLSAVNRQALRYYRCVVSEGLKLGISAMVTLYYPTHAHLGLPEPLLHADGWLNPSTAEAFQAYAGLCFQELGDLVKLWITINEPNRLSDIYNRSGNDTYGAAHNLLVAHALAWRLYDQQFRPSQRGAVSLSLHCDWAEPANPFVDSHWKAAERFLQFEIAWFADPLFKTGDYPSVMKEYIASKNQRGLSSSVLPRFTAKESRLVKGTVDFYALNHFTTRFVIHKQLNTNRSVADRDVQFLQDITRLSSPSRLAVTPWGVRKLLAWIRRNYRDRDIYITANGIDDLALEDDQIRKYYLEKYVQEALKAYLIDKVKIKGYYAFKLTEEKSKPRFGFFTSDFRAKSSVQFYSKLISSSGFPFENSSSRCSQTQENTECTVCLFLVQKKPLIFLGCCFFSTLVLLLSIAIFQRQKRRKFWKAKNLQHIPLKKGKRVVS
In words: flow cytometry, transfected HEK-293T.

For assay [2], the target named is T2, huBeta_Klotho (1-81, 194-1044) (muBeta KLOTHO 82P-193L) (human; murine, UniProt Q86Z14 1-1044).
T2 construct: also called Chimera 13; Construct 13
As to the kind of experiment: flow cytometry, transfected HEK-293T. Background: Flow cytometry measures light scatter and fluorescence of single cells or particles in a stream.

Assay [3] concerns the target T3, huBeta_Klotho (82-1044) (muBeta KLOTHO 1-81F) (murine; human, UniProt Q86Z14 1-1044).
T3 construct: also called Chimera 12; Construct 12
In words: flow cytometry, transfected HEK-293T.

A further assay addresses T4, murine β-Klotho (murine, UniProt Q99N32 1-1043).
T4 construct: Full length (GenBank NP-112457), transiently expressed on HEK-293T cells; also called mu β-klotho; mouse β-Klotho
T4 sequence: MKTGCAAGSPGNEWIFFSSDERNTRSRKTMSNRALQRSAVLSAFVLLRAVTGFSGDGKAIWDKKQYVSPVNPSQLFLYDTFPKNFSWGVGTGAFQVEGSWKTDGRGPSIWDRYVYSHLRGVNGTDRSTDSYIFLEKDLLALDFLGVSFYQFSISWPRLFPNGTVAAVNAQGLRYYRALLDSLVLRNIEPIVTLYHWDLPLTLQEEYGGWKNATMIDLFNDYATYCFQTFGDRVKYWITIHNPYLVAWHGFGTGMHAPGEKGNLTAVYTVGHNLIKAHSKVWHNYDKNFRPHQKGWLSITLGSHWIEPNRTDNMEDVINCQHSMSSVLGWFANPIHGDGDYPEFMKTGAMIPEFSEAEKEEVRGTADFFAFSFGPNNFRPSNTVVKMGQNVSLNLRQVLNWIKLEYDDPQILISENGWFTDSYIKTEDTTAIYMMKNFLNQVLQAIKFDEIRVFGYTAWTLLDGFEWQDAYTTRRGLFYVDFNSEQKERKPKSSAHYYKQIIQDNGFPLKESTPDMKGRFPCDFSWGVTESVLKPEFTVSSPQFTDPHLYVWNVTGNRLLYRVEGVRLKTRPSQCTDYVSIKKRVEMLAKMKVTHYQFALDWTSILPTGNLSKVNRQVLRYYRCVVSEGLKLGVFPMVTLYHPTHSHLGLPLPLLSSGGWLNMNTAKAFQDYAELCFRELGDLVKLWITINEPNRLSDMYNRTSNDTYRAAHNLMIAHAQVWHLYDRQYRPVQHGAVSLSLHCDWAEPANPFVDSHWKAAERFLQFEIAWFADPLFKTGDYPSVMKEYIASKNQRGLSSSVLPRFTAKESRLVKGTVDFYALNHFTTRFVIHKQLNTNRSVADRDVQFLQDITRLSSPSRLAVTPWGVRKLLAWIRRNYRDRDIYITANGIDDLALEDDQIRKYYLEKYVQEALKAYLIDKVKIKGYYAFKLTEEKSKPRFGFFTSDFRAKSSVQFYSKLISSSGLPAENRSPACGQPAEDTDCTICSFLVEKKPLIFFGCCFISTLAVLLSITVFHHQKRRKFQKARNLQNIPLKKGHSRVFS
In words: flow cytometry, transfected HEK-293T.

The next assay addresses T5, human FGFR1c (human, UniProt P11362 22-822).
T5 construct: Full length (GenBank NP-075598), expressed on transfected 293T cells; also called huFGFR1c; FGFR1c alone
In words: flow cytometry, transfected HEK293T.

B1: 51E5.1 (antibody, V domains shown)
VH: QVQLQQWGAGLLKPSETLSLTCAVYGGSFSGYYWSWIRQPPGKGLEWIGELDHSGSINYNPSLKSRVTISVDTSKNQFSLKLTSVTAADTAVYYCARVLGSTLDYWGQGTLVTVSS
VL: DIQMTQSPSSLSASVGDRVTITCRASQDIRNDLGWYQQKPGKAPNRLIYAASSLQFGVPSRFSGSGSGTEFTLTISSLQPEDFATYYCLQHSSYPLTFGGGTRVEIKR
Turning to B1, the binding result is given as “no binding” in assay [1]; “binds” in assay [2]; “binds” in assay [3]; “no binding” with murine β-Klotho; “no binding” in the assay with human FGFR1c.

B2: 66G2.1 (antibody, V domains shown)
VH: QVQLVESGGGVVQPGRSLRLSCAASGFTFSSYGMHWVRQAPGKGLEWVAGISYDGSNKNYADSVKGRITISRDNPKNTLYLQMNSLRAEDTAVYYCATTVTKEDYYYYGMDVWGQGTTVTVSS
VL: DIQMTQSPSSLSASVGDRVTITCRASQGIRNDLGWYQQKPGKAPKRLIYAASNLQSGVPSRFSGSGSGTKFTLTINSLQPEDFATYYCLQLNGYPLTFGGGTKVEIKR
Turning to B2, the binding result in assay [1] is reported as “no binding”; in assay [2], “binds”; in assay [3], “binds”; with murine β-Klotho, “no binding”; with human FGFR1c it was “no binding”.

B3: 65C3.1 (antibody, V domains shown)
VH: QVQLQESGPGLVKPSETLSLTCTVSGGSISSYYWSWIRQPPGKGLEWIGYIYYTGSTNYNPSLKSRVTISVDTSKNQFSLKLSSVTAADTAVYYCAREYYYGSGSYYPWGQGTLVTVSS
VL: EMVMTQSPATLSVSPGERATLSCRASQSVSSQLAWYQEKPGRAPRLLIYGASNRAIDIPARLSGSGSGTEFTLTISSLQSEDFAVYYCQQYNNWPWTFGQGTKVEFKR
With B3, the binding result in assay [1] is listed as “no binding”; in assay [2] it was “binds”; in assay [3], “binds”; in the assay with murine β-Klotho, “no binding”; in the assay with human FGFR1c, “no binding”.

B4: 67F5.1 (antibody, V domains shown)
VH: QVQLKESGPGLVKPSETLSLTCTVSGGSISSYYWSWIRQPPGKGLEWIGYIYYSGNTNYNPSLKSRVTISVDTSKNQFSLKLSSVTAADTAVYYCAREYYYGSGSYYPWGQGTLVTVSS
VL: EIVMTQSPATLSVSPGERVTLSCRASQSVSSNLAWYQQKPGQAPRLLIHGSSNRAIGIPARFSGSGSGTEFTLTISSLQSADFAVYNCQQYEIWPWTFGQGTKVEIKR
Take B4: the binding result in assay [1] is “no binding”; in assay [2], “binds”; in assay [3], “binds”; with murine β-Klotho, “no binding”; with human FGFR1c, “no binding”.

B5: 67C10.1 (antibody, V domains shown)
VH: EVQLVQSGAEVKKPGESLKISCQGSGYSFSSYWIGWVRQMPGKGLEWMGIIYPGDSDTRYSPSFQGQVTISADKSINTAYLQWSSLKASDTAIYYCARRASRGYRYGLAFAIWGQGTMVTVSS
VL: DFVMTQTPLSLPVTPGEPASISCRSSQSLLNSDDGNTYLDWYLQKPGQSPQLLIYTLSYRASGVPDRFSGSGSGTDFTLKISRVEAEDVGVYYCMQRIEFPITFGQGTRLEIKR
In the case of B5, the binding result is reported as “no binding” in assay [1]; “binds” in assay [2]; “binds” in assay [3]; “no binding” in the assay with murine β-Klotho; “no binding” with human FGFR1c.

B6: 49G3.3 (antibody, V domains shown)
VH: QVTLKESGPVLVKPTETLTLTCTVSGFSLSNPRMGVSWIRQPPGKALEWLTHIFSNDEKSYSTSLKSRLTISKDTSKSQVVLSMTNMDPVDTATYYCVRVDTLNYHYYGMDVWGQGTTVTVSS
VL: DIQMTQSPSSLSASIGDRVTITCQASQGISNYLNWYQQKPGKAPKLLIYDASNLETGVPSRFSGSGSGTDFTFTISSLQPEDIATYYCHQYDDLPLTFGGGTKVEIRR
For B6, the binding result in assay [1] is given as “no binding”; in assay [2], “binds”; in assay [3], “no binding”; with murine β-Klotho, “no binding”; with human FGFR1c it was “no binding”.
